Measured values: publication PMC10692165, “Structural basis of antibody inhibition and chemokine activation of the human CC chemokine receptor 8” (Nature Communications, 2023)
Values joined by “and” are separate entries in the source; they are usually repeats but may differ in a detail not shown here. Equal values may be shown once. Each block holds one molecule with its values, some of them ahead of it.

Columns and labels:
[1] = target: human CCR8 on CHO cells stably expressing human CCR8 (CHO.hCCR8) (human) (UniProt P51685); assay: real-time cell binding (LigandTracer); hCCL1^AF647 added at 0.5, 10 and 50 nM in sequence to CHO.hCCR8 cells at room temperature, then dissociation in medium; signal of CHO wild-type cells subtracted; one-to-two step model
Chain of human CCR8 on CHO cells stably expressing human CCR8 (CHO.hCCR8) (human) (P51685 whole entry): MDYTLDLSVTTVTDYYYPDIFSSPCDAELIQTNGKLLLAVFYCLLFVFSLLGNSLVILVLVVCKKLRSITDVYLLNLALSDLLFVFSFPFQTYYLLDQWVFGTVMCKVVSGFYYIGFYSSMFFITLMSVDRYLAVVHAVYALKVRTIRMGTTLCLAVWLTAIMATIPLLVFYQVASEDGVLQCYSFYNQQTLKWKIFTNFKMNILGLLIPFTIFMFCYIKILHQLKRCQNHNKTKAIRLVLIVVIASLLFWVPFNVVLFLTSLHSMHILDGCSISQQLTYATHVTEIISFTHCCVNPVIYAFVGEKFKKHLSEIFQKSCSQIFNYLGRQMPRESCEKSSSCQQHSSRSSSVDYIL

[2] = target: T1, human CCR8 on CHO cells stably expressing human CCR8 (CHO.hCCR8) (Homo sapiens, UniProt P51685); assay: cell-based or functional assay
T1 sequence (P51685 whole entry): as above

[3] = target: T1, human CCR8 on CHO cells stably …; assay: radioligand binding; unlabeled mAb1 (from 50 nM, 1:3 dilutions) against a fixed concentration of 125I-mAb1 on CHO.CCR8 cells, room temperature, 18 h; heterologous one site-fit Ki competitive binding model; three independent experiments, not averaged; settings: one partner purified

KD of the high affinity binding event (slow on, slow off) [1]: 0.7 nM
KD of the low affinity binding event (fast on, fast off) [1]: 15 nM
Kd [1]: 1 nM
Molecule: AlexaFluor647-labeled human CCL1 (hCCL1^AF647) (from UniProt P22362 24-96) (ligand)

Ca^2+ influx (FLIPR) in CHO.hCCR8 cells: inhibition of the signal induced by a sub-maximal (EC80) concentration of CCL1 (blocks CCL1-CCR8); apparent IC50 [2]: 57.9 nM
Kd [3]: 0.0284 nM
Ki [3]: 0.0414 nM and 0.0555 nM
B1: anti-human CCR8 antibody mAb1 (IgG) (antibody, V domains shown)
VH: QSVEESGGRLVTPGTPLTLTCTVSGFSLSNYAMIWVRQAPGEGLEWVGTISLGGYTYYANWAKGRFTISKTSTTVDLKISSPTTEDTATYFCARARWSTDSAIYTYAFDPWGPGTLVTVSS
VL: AYDMTQTPASVEVAVGGTVTIKCQASQSISSYLSWYQQKPGQRPELLIYKASTLASGVSSRFKGSGSGTQFTLTISDLEAADAATYYCQQGYTSSNIDNIFGGGTEVVVK
notes: variable region and CH1 as the heavy chain of Fab1, deposited in PDB 8TLM; as the light chain of Fab1, deposited in PDB 8TLM; Raised in rabbits; a humanized version was also made; the IgG was detected with anti-human IgG (Fc) secondaries; In the radioligand assay the tracer was 125I-labelled mAb1 (random tyrosines); also called anti-hCCR8 mAb1; anti-CCR8 mAb1
